Test results as given in the supplement of paper PMC9170038.

Tested on: MS2 coat protein
Experiment: apparent KD of MS2 coat protein; higher = weaker reporter binding
Settings: Eterna round: R107
Method in brief: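 Apparent KD stands for the median, per design, of fits to normalised cluster binding curves. The curves came from titrating on-chip-transcribed RNA switches on Illumina sequencing clusters with SNAP-549-labelled MS2 coat protein, twofold from 0.7 or 1.5 nM to 3 µM. Buffer was 100 mM Tris-HCl pH 7.5, 80 mM KCl, 4 mM MgCl2, without or with constant ligand.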

[1] = input ligand: theophylline 20 uM
[2] = input ligand: tryptophan 2.4 mM
[3] = input ligand: theophylline 2 mM

| Sequence | apparent KD of MS2 coat protein (input ligand: arginine 13.2 mM) | apparent KD of MS2 coat protein [1] | apparent KD of MS2 coat protein [2] | apparent KD of MS2 coat protein [3] | apparent KD of MS2 coat protein (input ligand: none) |
| --- | --- | --- | --- | --- | --- |
| CGACACCAGGCAAUCCAUCACCCGGCUGAUACCAGCUCUUUUGGAAGCCCUUGGCAGCAGAGAACAUGAGGAUCACCCAUGUCAG [theeternabot_exclusion_MS2_Theo_A_18] | 14.5 nM | 16.7 nM | 17 nM | – | – |
| CGACGAUACCUGGAUACCAGCGACAUGAGGAUCACCCAUGUAUGUGGAUCAGCCAUGAUAUGCCCUUGGCAGCCACCAAAGUCGG [IIIMULLIN] | 17 nM | 24.1 nM | 14.3 nM | – | – |
| CGAGUAAGUUCAAUCGAAUAACGGUUUUCGCGAGGACCGGUACGGCCGCCACUCGUGUGAUAUCACACAUGAGGAUCACCCAUGU [3'end-1] | 42.7 nM | 77.1 nM | – | 135 nM | – |
| CGAUAGGGUCAAUACCUAAUCAUAUCUGAAGGAGCGUGGAUAUACACAGGUAGGUCGCAGAAUCACAUGAGGAUCACCCAUGUCC [Same State Arginine A GF13] | 60.2 nM | 127 nM | 96.5 nM | 154 nM | 102 nM |
| CGCAACCCUAAGGGAUUGUGGUUAUUAGAUACCAGUAUGAUGCAAUACCCUUGGCAGCUAAUACAUGAGGAUCACCCAUGUUGCG [Th A Ex t2] | 13.6 nM | 20.2 nM | 16.8 nM | – | – |
| CGCCACAUGAGGAUCACCCAUGUAAUGGCGCGAGGACCGGUACGGCCGCCACUCGCCUGGCAGUGAGCGCAUGCGGCCUGGGUAU [Exclusion Tryp A GF9] | 12.2 nM | 13.3 nM | 13.3 nM | 14.4 nM | 10.6 nM |
| CGGACAUGAGGAUCACCCAUGUACACUGAAGGAGCGUCGAGAACGACAGGUAGGUCGCAGGUUGAGGAUGGUGAUGCUCAGGUAG [Exclusion Arginine A GF 3] | 37.1 nM | 64.7 nM | 14.3 nM | 15.8 nM | 39.2 nM |
| CGGACAUGAGGAUCACCCAUGUCGUCGACGCGAGGACCGGUACGGCCGCCACUCGCAUGCCAAUGAGCGCAUGCGGCCUGGGUAU [Exclusion Tryp A GF5] | 15.8 nM | 29 nM | – | 21 nM | 19.5 nM |
| CGGUUUGUGAUGGAUACCAGCAGAGAAAACGUUUAUCCUAACAUGAGGAUCACCCAUGUAUGCCCUUGGCAGCUGUUGUGGGCUG [8.U] | 34.5 nM | 60.3 nM | 43.5 nM | – | – |
| CGGUUUGUGAUGGAUACCAGCAGAGAAAAUGUUUAUCCUGACAUGAGGAUCACCCAUGUGUGCCCUUGGCAGCUGUUGUGGGCUG [8.X] | 57.3 nM | 85.7 nM | 51.1 nM | – | – |
| CGUAAACAUGAGGAUCACCCAUGUGAUGAUACCAGCACGAUUAACUGCCCUUGGCAGCAUGUAUUGUACGACUUAUUGCCCAUCG [theeternabot_sameState_MS2_Theo_A_15] | 15.4 nM | 23.3 nM | 13.5 nM | – | – |
| CGUGUGCGUUCUGAUACCAGAGACAUGAGGAUCACCCAUGUCCGAUCGUCCUGCCUCAGACUCCCUUGGCAGCAGGUUUUGUGCU [Exclusion Theophylline B GF4] | 29.5 nM | 56.7 nM | 50.2 nM | – | – |
| CUAUUGAUAGCGGCCGCCACUUACUCAUGAGGUAACAACAUGAGGAUCACCCAUGUUUGAGGAUCAAGGACCGGGCUAUUGAUAG [AstrosSSTryB#13] | 30 nM | 33.9 nM | 23.8 nM | 30.9 nM | 27.6 nM |
| CUAUUUAUAGCGGCCGCCACUUACUCAUGAGGUAACAACAUGAGGAUCACCCAUGUUUGAGGAUCAAGGACCGGGCUAUGGAUAG [AstrosSSTryB#12] | 24.5 nM | 37 nM | – | 31.5 nM | – |
| CUCCCGUGGUCGGCCGCCACUGGAGGCCUUGCGCGACAUGAGGAUCACCCAUGUGUGCCCGGCGUCAGGACCGGGAUCGCGUGAG [#1 Same State - Tryptophan B Attempt #12 (HarryS)] | 17.2 nM | 18.7 nM | 13.8 nM | 19.7 nM | 16.1 nM |
| CUCCGAGGCUAUACUAUACGCCUUUGUGAUACCAGAAUAAAUAUAUUCCCUUGGCAGCAUCACAUGAGGAUCACCCAUGUGCCAU [SSTheo A #12] | 15.7 nM | 27.7 nM | 12.4 nM | – | – |
| CUCGAGUUAUGAGAUACCAGACUAUAGUUUACAUGAGGAUCACCCAUGUUAUGGGUGGUAGUCCCUUGGCAGCUCAUAUGUUUAA [#06 Exclusion-TheophyllineB] | 210 nM | 274 nM | 305 nM | – | – |

| Sequence | apparent KD of MS2 coat protein (input ligand: arginine 13.2 mM) | apparent KD of MS2 coat protein [1] | apparent KD of MS2 coat protein [2] | apparent KD of MS2 coat protein [3] | apparent KD of MS2 coat protein (input ligand: none) |
| --- | --- | --- | --- | --- | --- |
| CUCUGAGUGAGUAAUCACUCAGAGGCGGAUACCAGCGAGGUCCAUCGCCCUUGGCAGCCGAACAUGAGGAUCACCCAUGUCGGUA [#1 Same State - Theophylline A Attempt #24 (HarryS)] | 8.82 nM | 12.2 nM | 11.7 nM | – | – |
| CUGCCAUGCAGAGAUACCAGUGAGCUCAAAACAUGAGGAUCACCCAUGUAAAUUGCCGAUCACCCUUGGCAGCUCUGCAUGGCAG [}=%#^] | 13.7 nM | 10.3 nM | 9.55 nM | – | – |
| CUUAUACAUGAGGAUCACCCAUGUGGUGAUACCAGCCACGAUCAAGGCCCUUGGCAGCACAAAGGGAAUAAUAUGAUUACAAAAC [theeternabot_sameState_MS2_Theo_A_6] | 117 nM | 566 nM | 489 nM | – | – |
| CUUCUGAAAGCAAUGGGAUCUGUUAUUGAUACCAGCAUCUGAUUUUGCCCUUGGCAGCAAGAAACAUGAGGAUCACCCAUGUGGC [theeternabot_exclusion_MS2_Theo_A_19] | 21.4 nM | 23.1 nM | 21 nM | – | – |
| CUUGUGCUGACGGCCGCCACUUUAUGGGAGUCCUGUUCUGAUUGAUACAUGAGGAUCACCCAUGUAAGGACCGGGUCGUACCAUA [theeternabot_exclusion_MS2_Trp_B_22] | 22.7 nM | 27.4 nM | – | 22.7 nM | – |
| CUUGUGGGCGGAAGGAGCGCGAUUACAUAACAUGAGGAUCACCCAUGUAAGAAAUUAUUCAUGCAGGUAGGUCGCCGUUCGUGGG [Same State Arginine B GF9] | 24.8 nM | 30.9 nM | 25.2 nM | 24.1 nM | 23.8 nM |
| GACAUGAGGAUCACCCAUGUACCGCGAGAAGGAGCGCGGAUAAACGCAGGUAGGUCGCUCGUGGGCUUGUAUUCAAUCGUAAGCU [Anlaaranan] | 48.2 nM | 187 nM | 80.7 nM | 207 nM | 108 nM |
| GACAUGAGGAUCACCCAUGUUGACUAUGAAGGAGCGUCGGAAAUGACAGGUAGGUCGCAUAGUCGACCUUGUAUUUUGUGUGUUU [EAA #9] | 12.7 nM | 17.4 nM | 11.6 nM | 12.5 nM | 10.4 nM |
| GACCACAUGAGGAUCACCCAUGUCUUGGUCCGAGGACCGGUACGGCCGCCACUCGAGAGCCGUACAAAUAAACGGAGUGCCAUCA [theeternabot_sameState_MS2_Trp_A_31] | 12.5 nM | 19.6 nM | – | 15.5 nM | – |
| GACCCAUGAGUUGUAAAAGCUCAUGGGUCGCGAGGACCGGUACGGCCGCCACUCGGCUGUACAUGAGGAUCACCCAUGUCAGGGU [#1 Same State - Tryptophan A Attempt #27 (HarryS)] | 44.8 nM | 568 nM | – | 527 nM | – |
| GAGCUGAUGUAGAGCGAAUAUUCGAGAGAUACCAGUACAGAAAUGUACCCUUGGCAGCUCAACUUUACAUGAGGAUCACCCAUGU [Ex Theophylline A 23] | 15 nM | 15.6 nM | 14.7 nM | – | – |
| GAGUACACUACGGCCGCCACUCAAGGAGCUACAUAGCUCCUAGACAUGAGGAUCACCCAUGUACCGAGGACCGGGUAGAUCCUUA [Same State Typrtophan B GF2] | 129 nM | 246 nM | – | 294 nM | – |
| GAUGAUAUUGCAGAUACCAGACACAUGAGGAUCACCCAUGUGUCCUCGCCAGCGGCAUGUGUCCCUUGGCAGCUGCGAUAUCAUC [Colombia] | 11.1 nM | 17.7 nM | 12.1 nM | 41.2 nM | 11.1 nM |
| GAUUUAACAAAAGUUAGAUCAGUGGGUGAACGAGGACCGGUACGGCCGCCACUCGGACAUGAGGAUCACCCAUGUCCAUGUGAAA [AstrosExyTryA#20] | 15.3 nM | 19.4 nM | – | 18.6 nM | – |
| GCACAUGAGGAUCACCCAUGUACAACUGAAGGAGCGAGACAGAACUCAGGUAGGUCGCAGAAUGCACAAUAGCAUACGACAUGGG [Exclusion Arginine A GF20] | 20.2 nM | 52.1 nM | 24.2 nM | 23.8 nM | 20.8 nM |
| GCACCAGGUACGGAUACCAGACAUUGCCAAUUGGGUGAACAUGAGGAUCACCCAUGUUAAGUCCCUUGGCAGCCGUACCUGGUGC [ETB NP+V+V2 #6 Same Structure] | 11.4 nM | 17.7 nM | 11.5 nM | 178 nM | 10.6 nM |
